Results as given in PMC10713589.
Several values for one entry are separate records, joined by “and”; a condition that tells them apart may be missing. Equal values may be shown once.

Assays:
[1] = biological target: Full-length VEX1 tagged with 12xmyc at the C-terminus at the native locus (Trypanosoma brucei); assay: SEC; trypanosome extracts (1% CHAPS in PBS, micrococcal nuclease treated) on a BioBasic SEC 1000 column at 5 °C, elution in 0.3% CHAPS in PBS; fractions analysed by anti-myc protein blot; calibrated with thyroglobulin, ferritin, BSA and myoglobin
[2] = biological target: VSG exclusion factor 1 (VEX1), full length, with a C-terminal 12xmyc tag at the native locus (T. brucei); assay: native gel or EMSA; blue native PAGE (3-12% gradient, 4 °C) of digitonin lysates treated with micrococcal nuclease, blotted for the myc-tagged protein; with and without knockdown of VEX1, VEX2 or CAF-1
[3] = biological target: VSG exclusion factor 2 (VEX2) with an N-terminal 6x c-myc tag, tagged at the native locus (T. brucei); assay: as above

Full-length VEX1 tagged with 12xmyc at the C-terminus at the native locus (natural protein)
stoichiometry N [1]: 2

VSG exclusion factor 1 (VEX1), full length, with a C-terminal 12xmyc tag at the native locus (natural protein)
stoichiometry N [2]: 2

VSG exclusion factor 2 (VEX2) with an N-terminal 6x c-myc tag, tagged at the native locus (natural protein)
stoichiometry N [3]: 2 and 6
